US20110070184A1, “METHODS AND COMPOSITIONS FOR TREATING ATHEROSCLEROSIS AND RELATED CONDIDTIONS” (CAROLUS THERPEUTICS, INC., priority 2008, published 2011)

T1: CXCR2 (Homo sapiens, UniProt P25025)
T1 construct: expressed in transfected cells
T1 sequence (P25025 1-360): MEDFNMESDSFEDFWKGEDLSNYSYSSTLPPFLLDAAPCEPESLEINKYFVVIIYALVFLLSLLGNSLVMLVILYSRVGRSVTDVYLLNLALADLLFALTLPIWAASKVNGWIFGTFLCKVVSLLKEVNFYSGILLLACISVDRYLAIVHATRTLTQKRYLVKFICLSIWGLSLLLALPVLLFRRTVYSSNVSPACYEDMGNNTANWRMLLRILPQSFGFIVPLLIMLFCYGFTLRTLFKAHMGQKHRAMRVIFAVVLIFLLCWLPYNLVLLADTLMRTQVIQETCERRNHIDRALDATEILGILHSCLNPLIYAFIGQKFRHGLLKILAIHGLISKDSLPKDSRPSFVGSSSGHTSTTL

B1: MIF: Recombinant macrophage migration inhibitory factor, expressed and purified as described (Bernhagen 1993) (protein)
chain: PMFIVNTNVPRASVPDGFLSELTQQLAQATGKPPQYIAVHVVPDQLMAFGGSSEPCALCSLHSIGKIGGAQNRSYSKLLCGLLAERLRISPDRVYINYYDMNAANVGWNNSTFA

Key:
CXCR4 = CXCR4 (Homo sapiens, UniProt P61073); conditions: data not shown
Chain of CXCR4 (P61073 whole entry): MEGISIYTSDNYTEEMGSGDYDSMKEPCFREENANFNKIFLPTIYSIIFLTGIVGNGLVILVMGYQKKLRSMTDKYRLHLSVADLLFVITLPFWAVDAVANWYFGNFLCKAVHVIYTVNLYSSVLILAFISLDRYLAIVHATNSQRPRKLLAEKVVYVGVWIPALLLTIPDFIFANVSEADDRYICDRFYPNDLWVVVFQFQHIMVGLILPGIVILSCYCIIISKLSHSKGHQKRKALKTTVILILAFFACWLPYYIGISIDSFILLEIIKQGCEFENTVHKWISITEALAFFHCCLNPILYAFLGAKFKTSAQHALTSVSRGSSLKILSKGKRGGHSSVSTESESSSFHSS

[1] = tested on: primary human neutrophils; assay: Calcium mobilization in neutrophils (Fluo-4 AM); assay type: cell-based
Description: (§1) Calcium mobilization. Neutrophils or L1.2 CXCR2 transfectants were labeled with Fluo-4 AM (Molecular Probes).

[2] = tested on: primary CD3+ T lymphocytes; assay: Transwell chemotaxis of primary CD3+ T cells toward MIF; assay type: cell-based, human; conditions: primary CD3+ T lymphocytes devoid of CXCR1 and CXCR2
Experimental: (§2) Chemotaxis assays. […] Pore sizes and intervals were 5 μm and 3 h (monocytes), 3 μm and 1.5 h (T cells), and […] and 1 h (neutrophils).

[3] = tested on: leukocyte adhesion and emigration in postcapillary venules; assay: Cremaster microcirculation model, intravital microscopy; assay type: in vivo, mouse; conditions: MIF injected adjacent to the cremaster muscle
Experimental: Cremaster microcirculation model. […] After 4 h, intravital microscopy (Zeiss Axioplan; 20×) was performed in postcapillary venules (Gregory, J. L., et al. (2004) Arthritis Rheum. 50, 3023-3034; Keane, M. P., et al. (2004) J. Immunol. 172, 2853-2860). Adhesion was measured as leukocytes stationary for more than 30 s, emigration as the number of extravascular leukocytes per field.

primary human monocytes [4] = assay: Transwell chemotaxis of primary monocytes toward MIF; assay type: cell-based
Experimental: as §2

CXCR2 [5] = molecular target: T1, CXCR2; assay: CXCR2 internalization assay in HEK293-CXCR2 transfectants (FACS); assay type: cell-based; conditions: stable HEK293 transfectants
Experimental: CXCR internalization assays. […] Internalization was calculated relative to surface expression of buffer-treated cells (100% control) and isotype control staining (0% control): geometric MFI[experimental]−MFI[0% control]/MFI[100% control]−MFI[0% control]×100.

CCR5 = molecular target: T2, CCR5 (Homo sapiens, UniProt P51681); assay: CCR5 internalization in L1.2 CCR5 transfectants; assay type: cell-based; conditions: data not shown
T2 construct: host or cells: L1.2 (mouse pre-B lymphoma) cells
T2 sequence (P51681 whole entry): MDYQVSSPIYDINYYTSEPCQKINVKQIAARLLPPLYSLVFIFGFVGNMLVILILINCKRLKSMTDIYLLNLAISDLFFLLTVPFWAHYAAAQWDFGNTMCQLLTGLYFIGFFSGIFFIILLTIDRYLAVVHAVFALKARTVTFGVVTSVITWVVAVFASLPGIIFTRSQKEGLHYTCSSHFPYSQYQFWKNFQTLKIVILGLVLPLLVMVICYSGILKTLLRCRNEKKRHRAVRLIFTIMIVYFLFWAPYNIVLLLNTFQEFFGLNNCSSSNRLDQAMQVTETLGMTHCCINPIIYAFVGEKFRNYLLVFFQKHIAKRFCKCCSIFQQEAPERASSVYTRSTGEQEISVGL

CXCR2 [6] = molecular target: T1, CXCR2; assay: Calcium mobilization in L1.2 CXCR2 transfectants (Fluo-4 AM); assay type: cell-based
Description: as §1

primary human monocytes [7] = assay: Arrest of primary monocytes on MIF-pretreated human aortic endothelial cells under flow; assay type: cell-based; conditions: aortic endothelial cells pretreated with recombinant MIF for 2 h
Experimental: Adhesion assays. Arrest of calcein-AM (Molecular Probes)-labeled monocytes, T cells and L1.2 transfectants was quantified in parallel-wall chambers in flow (1.5 dynes/cm^2, 5 min) (Schober, A., et al. (2004) Circulation 109, 380-385; Osterman, G., et al. (2002) Nat. Immunol. 3, 151-158; Weber, C., et al. (1996) J. Cell Biol. 134, 1063-1073).

neutrophil recruitment = assay: Model of acute MIF-induced peritonitis; assay type: in vivo, mouse; conditions: after 4 h, mice with wild-type bone marrow
Experimental: Model of acute peritonitis. […] After 4 h, peritoneal Iavage was performed and Gr-1^+CD115^−F4/80^− neutrophils were quantified by flow cytometry using the relevant conjugated antibodies.

Molecule | specific binding of fluorescein-MIF to CXCR4-bearing Jurkat cells (CXCR4) | calcium influx [1] | T-cell transmigration [2] | leukocyte adhesion and emigration in postcapillary venules [3] | MIF concentration that induced optimal chemotaxis (primary human monocytes [4]) [nM] | optimum of bell-shaped dose-response curve of induced monocyte migration (primary human monocytes [4]; MIF in lower chamber, primary human PBMC-derived monocytes) [ng/mL] | CXCR2 internalization (surface CXCR2 by FACS) (CXCR2 [5]) | CCR5 internalization (CCR5) | calcium influx (CXCR2 [6]) | arrest of primary human monocytes under flow conditions (primary human monocytes [7]) | neutrophil recruitment after intraperitoneal injection (neutrophil recruitment)
c1ccc(CNCc2ccc(CN3CCCNCCNCCCNCC3)cc2)nc1 [AMD3465] | inhibited | – | – | – | – | – | – | – | – | – | –
B1 | – | induced calcium influx | dose-dependently induced transmigration | marked increase | 2 to 4 | 25 to 50 | induced CXCR2 internalization | unable to induce CCR5 internalization | dose-dependently induced calcium influx | substantially increased the arrest | elicited neutrophil recruitment
